# Reference: patent publication US20180282373A1 (RESEARCH FOUNDATION FOR THE STATE UNIVERSITY OF NEW YORK, published 2018)
# What was measured:
# [1] = molecular target: T1, purified recombinant full-length WDR5 (UniProt P61964 2-334); experiment: cell-based or functional assay
# [2] = molecular target: T1, purified recombinant full-length WDR5; experiment: ITC at 20 C, Win6mer (200 µM) titrated into full-length WDR5 (20 µM); 95% confidence interval 1.7-4.2 nM
# Method: (§1) In the present disclosure, we synthesized a six-residue peptidomimetic.
# (§2) Isothermal titration calorimetry (ITC). […] ITC experiments were carried out at 20° C. using a VP-ITC micro-calorimeter (MicroCal). […] Reference power was set to 10 μCal/sec and stirring speed was set to 295 rpm. Data were integrated using NITPIC. SEDPHAT was used to fit the integrated data to a single-site heterogeneous association model, using simulated annealing and Maxquardt-Levenberg algorithms. Automatic confidence interval search with projection method was applied to estimate the error of the determined thermodynamic parameters. Confidence interval was set to 2σ (95%). ITC figure was generated using GUSSI.
# [3] = molecular target: T1, purified recombinant full-length WDR5; experiment: ITC, Kd compared with Table I
# Method: as §1, §2
# [4] = molecular target: T1, purified recombinant full-length WDR5; experiment: cell-based or functional assay; remark: listed apart in the source
# [5] = molecular target: T1, purified recombinant full-length WDR5; experiment: GST pull-down with purified WDR5, Coomassie-stained gel
# [6] = molecular target: endogenous WDR5 (MCF-7 cell extracts; T-REx HEK293 nuclear extracts) (human, UniProt P61964 2-334); experiment: anti-Flag co-immunoprecipitation from T-REx HEK293 cells, Western blot
# Method: Co-immunoprecipitation from mammalian cells. […] Following induction with doxycycline, nuclear extracts were prepared as described and incubated with anti-Flag M2 agarose beads (Sigma) for 3 h. Bound proteins were eluted with SDS sample buffer after extensive washing and analyzed by Western blotting.
binder,measurement,setting,value
"Ac-ARTEVY-NH2 (Synthesized by GenScript; also called 6-mer Win motif peptidomimetic) [Win6mer, Ac-ARTEVY-NH2 (SEQ ID NO:8, N-terminus acetylated and C-terminus amidated)]","IC50, inhibition of MLL1 core complex methyltransferase activity, H3K4me0 substrate (scintillation proximity assay)",[1],2300 nM
same,"IC50, inhibition of MLL1 core complex methyltransferase activity, H3K4me1 substrate (scintillation proximity assay)",[1],2200 nM
same,"IC50, inhibition of SETd1A core complex methyltransferase activity, H3K4me0 substrate (scintillation proximity assay)",[1],3200 nM
same,"IC50, inhibition of SETd1A core complex methyltransferase activity, H3K4me1 substrate (scintillation proximity assay)",[1],2900 nM
same,"IC50, inhibition of SETd1A core complex methyltransferase activity, H3K4me2 substrate (scintillation proximity assay)",[1],2400 nM
same,Kd,[2],2.9 nM
same,fold increase in binding affinity over the best naturally occurring Win motif sequence,[3],~18 fold
same,"IC50, inhibition of MLL1 core complex, 0.5 µM enzyme complex assayed",[4],300 nM
same,"IC50, inhibition of MLL1 core complex, 1 µM enzyme complex assayed",[4],800 nM
same,"IC50, inhibition of MLL1 core complex, 1.8 µM enzyme complex assayed",[4],2200 nM
same,"average IC50, inhibition of MLL1 core complex (2 µM of enzyme complex assayed)",[4],2200 nM
same,"average IC50, inhibition of SETd1A core complex (2 µM of enzyme complex assayed)",[4],2500 nM
"GST-tagged SETd1B Win-SET domain, Setd1B(1727-1966), R1748A (enzyme, also called SETd1B^R1748A; SETd1B Win motif mutant; not shown: GST tag of the pGST parallel vector, with its linker, at the N end) LSSAKKKKRDDGIREHVTGCAASEGFYTIDKKDKLRYLNSSRASTDEPPADTQGMSIPAQPHASTRAGSERRSEQRRLLSSFTGSCDSDLLKFNQLKFRKKKLKFCKSHIHDWGLFAMEPIAADEMVIEYVGQNIRQVIADMREKRYEDEGIGSSYMFRVDHDTIIDATKCGNFARFINHSCNPNCYAKVITVESQKKIVIYSKQHINVNEEITYDYKFPIEDVKIPCLCGSENCRGTLN",binding result,[5],no binding (tested: 3 µM)
"Flag-tagged full-length human SETd1B, Win motif arginine to alanine mutant (enzyme, mature; also called SETd1B Win motif mutant (full-length); not shown: Flag tag) MENSHPPHHHHQQPPPQPGPSGERRNHHWRSYKLMIDPALKKGHHKLYRYDGQHFSLAMSSNRPVEIVEDPRVVGIWTKNKELELSVPKFKIDEFYVGPVPPKQVTFAKLNDNIRENFLRDMCKKYGEVEEVEILYNPKTKKHLGIAKVVFATVRGAKDAVQHLHSTSVMGNIIHVELDTKGETRMRFYELLVTGRYTPQTLPVGELDAVSPIVNETLQLSDALKRLKDGGLSAGCGSGSSSVTPNSGGTPFSQDTAYSSCRLDTPNSYGQGTPLTPRLGTPFSQDSSYSSRQPTPSYLFSQDPAVTFKARRHESKFTDAYNRRHEHHYVHNSPAVTAVAGATAAFRGSSDLPFGAVGGTGGSSGPPFKAQPQDSATFAHTPPPAQATPAPGFKSAFSPYQTPVAHFPPPPEEPTATAAFGARDSGEFRRAPAPPPLPPAEPLAKEKPGTPPGPPPPDTNSMELGGRPTFGWSPEPCDSPGTPTLESSPAGPEKPHDSLDSRIEMLLKEQRTKLLFLREPDSDTELQMEGSPISSSSSQLSPLAPFGTNSQPGFRGPTPPSSRPSSTGLEDISPTPLPDSDEDEELDLGLGPRPPPEPGPPDPAGLLSQTAEVALDLVGDRTPTSEKMDEGQQSSGEDMEISDDEMPSAPITSADCPKPMVVTPGAAAVAAPSVLAPTLPLPPPPGFPPLPPPPPPPPPQPGFPMPPPLPPPPPPPPPAHPAVTVPPPPLPAPPGVPPPPILPPLPPFPPGLFPVMQVDMSHVLGGQWGGMPMSFQMQTQVLSRLMTGQGACPYPPFMAAAAAAASAGLQFVNLPPYRGPFSLSNSGPGRGQHWPPLPKFDPSVPPPGYMPRQEDPHKATVDGVLLVVLKELKAIMKRDLNRKMVEVVAFRAFDEWWDKKERMAKASLTPVKSGEHKDEDRPKPKDRIASCLLESWGKGEGLGYEGLGLGIGLRGAIRLPSFKVKRKEPPDTTSSGDQKRLRPSTSVDEEDEESERERDRDMADTPCELAKRDPKGVGVRRRPARPLELDSGGEEDEKESLSASSSSSASSSSGSSTTSPSSSASDKEEEQESTEEEEEAEEEEEEEVPRSQLSSSSTSSTSDKDDDDDDSDDRDESENDDEDTALSEASEKDEGDSDEEETVSIVTSKAEATSSSESSESSEFESSSESSPSSSEDEEEVVAREEEEEEEEEEMVAEESMASAGPEDFEQDGEEAALAPGAPAVDSLGMEEEVDIETEAVAPEERPSMLDEPPLPVGVEEPADSREPPEEPGLSQEGAMLLSPEPPAKEVEARPPLSPERAPEHDLEVEPEPPMMLPLPLQPPLPPPRPPRPPSPPPEPETTDASHPSVPPEPLAEDHPPHTPGLCGSLAKSQSTETVPATPGGEPPLSGGSSGLSLSSPQVPGSPFSYPAPSPSLSSGGLPRTPGRDFSFTPTFSEPSGPLLLPVCPLPTGRRDERSGPLASPVLLETGLPLPLPLPLPLPLALPAVLRAQARAPTPLPPLLPAPLASCPPPMKRKPGRPRRSPPSMLSLDGPLVRPPAGAALGRELLLLPGQPQTPVFPSTHDPRTVTLDFRNAGIPAPPPPLPPQPPPPPPPPPVEPTKLPFKELDNQWPSEAIPPGPRGRDEVTEEYMELAKSRGPWRRPPKKRHEDLVPPAGSPELSPPQPLFRPRSEFEEMTILYDIWNGGIDEEDIRFLCVTYERLLQQDNGMDWLNDTLWVYHPSTSLSSAKKKKRDDGIREHVTGCAASEGFYTIDKKDKLRYLNSSRASTDEPPADTQGMSIPAQPHASTRAGSERRSEQRRLLSSFTGSCDSDLLKFNQLKFRKKKLKFCKSHIHDWGLFAMEPIAADEMVIEYVGQNIRQVIADMREKRYEDEGIGSSYMFRVDHDTIIDATKCGNFARFINHSCNPNCYAKVITVESQKKIVIYSKQHINVNEEITYDYKFPIEDVKIPCLCGSENCRGTLN",binding result,[6],no binding
